T1: Human CD3eg linker (human)
T1 construct: Single chain: epsilon and gamma subunits of human CD3 joined by a 29-mer linker, Flag-tag at the C-terminus; also called recombinant human CD3
T1 chain: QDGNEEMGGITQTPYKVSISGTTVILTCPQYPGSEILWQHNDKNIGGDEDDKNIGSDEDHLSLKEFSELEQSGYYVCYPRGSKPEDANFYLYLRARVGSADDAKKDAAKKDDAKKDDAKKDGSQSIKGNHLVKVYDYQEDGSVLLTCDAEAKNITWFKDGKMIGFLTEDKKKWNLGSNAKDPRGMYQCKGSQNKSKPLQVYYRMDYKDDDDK


Target: T1, Human CD3eg linker
Assay: Biacore SPR, vs template H183/L072

fold change of affinity [fold] | Binder
0.2 | H183/L072 VH N31Q (antibody, name in Kabat numbering, V domains shown) VH: QVQLVESGGGLVQPGRSLRLSCAASGFTFSQAWMHWVRQAPGKGLEWVAQIKDKGNAYAAYYAPSVKGRFTISRDDSKNSIYLQMNSLKTEDTAVYYCHYVHYASASTVLPAFGVDAWGQGTTVTVSS VL: DIVMTQSPLSLPVTPGEPASISCQASQELVHMNRNTYLHWYQQKPGQAPRLLIYKVSNRFPGVPDRFSGSGSGTDFTLKISRVEAEDVGVYYCAQGTSVPFTFGQGTKLEIK
0.5 | H183/L072 VH N53Q (antibody, name in Kabat numbering, V domains shown) VH: QVQLVESGGGLVQPGRSLRLSCAASGFTFSNAWMHWVRQAPGKGLEWVAQIKDKGQAYAAYYAPSVKGRFTISRDDSKNSIYLQMNSLKTEDTAVYYCHYVHYASASTVLPAFGVDAWGQGTTVTVSS VL: DIVMTQSPLSLPVTPGEPASISCQASQELVHMNRNTYLHWYQQKPGQAPRLLIYKVSNRFPGVPDRFSGSGSGTDFTLKISRVEAEDVGVYYCAQGTSVPFTFGQGTKLEIK
0.6 | H183/L072 VH N53K (antibody, name in Kabat numbering, V domains shown) VH: QVQLVESGGGLVQPGRSLRLSCAASGFTFSNAWMHWVRQAPGKGLEWVAQIKDKGKAYAAYYAPSVKGRFTISRDDSKNSIYLQMNSLKTEDTAVYYCHYVHYASASTVLPAFGVDAWGQGTTVTVSS VL: DIVMTQSPLSLPVTPGEPASISCQASQELVHMNRNTYLHWYQQKPGQAPRLLIYKVSNRFPGVPDRFSGSGSGTDFTLKISRVEAEDVGVYYCAQGTSVPFTFGQGTKLEIK
0.6 | H183/L072 VH N31T (antibody, name in Kabat numbering, V domains shown) VH: QVQLVESGGGLVQPGRSLRLSCAASGFTFSTAWMHWVRQAPGKGLEWVAQIKDKGNAYAAYYAPSVKGRFTISRDDSKNSIYLQMNSLKTEDTAVYYCHYVHYASASTVLPAFGVDAWGQGTTVTVSS VL: DIVMTQSPLSLPVTPGEPASISCQASQELVHMNRNTYLHWYQQKPGQAPRLLIYKVSNRFPGVPDRFSGSGSGTDFTLKISRVEAEDVGVYYCAQGTSVPFTFGQGTKLEIK
0.4 | H183/L072 VH N53G (antibody, name in Kabat numbering, V domains shown) VH: QVQLVESGGGLVQPGRSLRLSCAASGFTFSNAWMHWVRQAPGKGLEWVAQIKDKGGAYAAYYAPSVKGRFTISRDDSKNSIYLQMNSLKTEDTAVYYCHYVHYASASTVLPAFGVDAWGQGTTVTVSS VL: DIVMTQSPLSLPVTPGEPASISCQASQELVHMNRNTYLHWYQQKPGQAPRLLIYKVSNRFPGVPDRFSGSGSGTDFTLKISRVEAEDVGVYYCAQGTSVPFTFGQGTKLEIK
0.3 | H183/L072 VH N31Y (antibody, name in Kabat numbering, V domains shown) VH: QVQLVESGGGLVQPGRSLRLSCAASGFTFSYAWMHWVRQAPGKGLEWVAQIKDKGNAYAAYYAPSVKGRFTISRDDSKNSIYLQMNSLKTEDTAVYYCHYVHYASASTVLPAFGVDAWGQGTTVTVSS VL: DIVMTQSPLSLPVTPGEPASISCQASQELVHMNRNTYLHWYQQKPGQAPRLLIYKVSNRFPGVPDRFSGSGSGTDFTLKISRVEAEDVGVYYCAQGTSVPFTFGQGTKLEIK
0.6 | H183/L072 VH N53L (antibody, name in Kabat numbering, V domains shown) VH: QVQLVESGGGLVQPGRSLRLSCAASGFTFSNAWMHWVRQAPGKGLEWVAQIKDKGLAYAAYYAPSVKGRFTISRDDSKNSIYLQMNSLKTEDTAVYYCHYVHYASASTVLPAFGVDAWGQGTTVTVSS VL: DIVMTQSPLSLPVTPGEPASISCQASQELVHMNRNTYLHWYQQKPGQAPRLLIYKVSNRFPGVPDRFSGSGSGTDFTLKISRVEAEDVGVYYCAQGTSVPFTFGQGTKLEIK
0.4 | H183/L072 VH N31W (antibody, name in Kabat numbering, V domains shown) VH: QVQLVESGGGLVQPGRSLRLSCAASGFTFSWAWMHWVRQAPGKGLEWVAQIKDKGNAYAAYYAPSVKGRFTISRDDSKNSIYLQMNSLKTEDTAVYYCHYVHYASASTVLPAFGVDAWGQGTTVTVSS VL: DIVMTQSPLSLPVTPGEPASISCQASQELVHMNRNTYLHWYQQKPGQAPRLLIYKVSNRFPGVPDRFSGSGSGTDFTLKISRVEAEDVGVYYCAQGTSVPFTFGQGTKLEIK
0.5 | H183/L072 VH N53E (antibody, name in Kabat numbering, V domains shown) VH: QVQLVESGGGLVQPGRSLRLSCAASGFTFSNAWMHWVRQAPGKGLEWVAQIKDKGEAYAAYYAPSVKGRFTISRDDSKNSIYLQMNSLKTEDTAVYYCHYVHYASASTVLPAFGVDAWGQGTTVTVSS VL: DIVMTQSPLSLPVTPGEPASISCQASQELVHMNRNTYLHWYQQKPGQAPRLLIYKVSNRFPGVPDRFSGSGSGTDFTLKISRVEAEDVGVYYCAQGTSVPFTFGQGTKLEIK
0.4 | H183/L072 VH N53I (antibody, name in Kabat numbering, V domains shown) VH: QVQLVESGGGLVQPGRSLRLSCAASGFTFSNAWMHWVRQAPGKGLEWVAQIKDKGIAYAAYYAPSVKGRFTISRDDSKNSIYLQMNSLKTEDTAVYYCHYVHYASASTVLPAFGVDAWGQGTTVTVSS VL: DIVMTQSPLSLPVTPGEPASISCQASQELVHMNRNTYLHWYQQKPGQAPRLLIYKVSNRFPGVPDRFSGSGSGTDFTLKISRVEAEDVGVYYCAQGTSVPFTFGQGTKLEIK
0.5 | H183/L072 VH N31R (antibody, name in Kabat numbering, V domains shown) VH: QVQLVESGGGLVQPGRSLRLSCAASGFTFSRAWMHWVRQAPGKGLEWVAQIKDKGNAYAAYYAPSVKGRFTISRDDSKNSIYLQMNSLKTEDTAVYYCHYVHYASASTVLPAFGVDAWGQGTTVTVSS VL: DIVMTQSPLSLPVTPGEPASISCQASQELVHMNRNTYLHWYQQKPGQAPRLLIYKVSNRFPGVPDRFSGSGSGTDFTLKISRVEAEDVGVYYCAQGTSVPFTFGQGTKLEIK
0.7 | H183/L072 VH N53A (antibody, name in Kabat numbering, V domains shown) VH: QVQLVESGGGLVQPGRSLRLSCAASGFTFSNAWMHWVRQAPGKGLEWVAQIKDKGAAYAAYYAPSVKGRFTISRDDSKNSIYLQMNSLKTEDTAVYYCHYVHYASASTVLPAFGVDAWGQGTTVTVSS VL: DIVMTQSPLSLPVTPGEPASISCQASQELVHMNRNTYLHWYQQKPGQAPRLLIYKVSNRFPGVPDRFSGSGSGTDFTLKISRVEAEDVGVYYCAQGTSVPFTFGQGTKLEIK
0.5 | H183/L072 VH N31V (antibody, name in Kabat numbering, V domains shown) VH: QVQLVESGGGLVQPGRSLRLSCAASGFTFSVAWMHWVRQAPGKGLEWVAQIKDKGNAYAAYYAPSVKGRFTISRDDSKNSIYLQMNSLKTEDTAVYYCHYVHYASASTVLPAFGVDAWGQGTTVTVSS VL: DIVMTQSPLSLPVTPGEPASISCQASQELVHMNRNTYLHWYQQKPGQAPRLLIYKVSNRFPGVPDRFSGSGSGTDFTLKISRVEAEDVGVYYCAQGTSVPFTFGQGTKLEIK
0.5 | H183/L072 VH N31S (antibody, name in Kabat numbering, V domains shown) VH: QVQLVESGGGLVQPGRSLRLSCAASGFTFSSAWMHWVRQAPGKGLEWVAQIKDKGNAYAAYYAPSVKGRFTISRDDSKNSIYLQMNSLKTEDTAVYYCHYVHYASASTVLPAFGVDAWGQGTTVTVSS VL: DIVMTQSPLSLPVTPGEPASISCQASQELVHMNRNTYLHWYQQKPGQAPRLLIYKVSNRFPGVPDRFSGSGSGTDFTLKISRVEAEDVGVYYCAQGTSVPFTFGQGTKLEIK
0.8 | H183/L072 VH N53F (antibody, name in Kabat numbering, V domains shown) VH: QVQLVESGGGLVQPGRSLRLSCAASGFTFSNAWMHWVRQAPGKGLEWVAQIKDKGFAYAAYYAPSVKGRFTISRDDSKNSIYLQMNSLKTEDTAVYYCHYVHYASASTVLPAFGVDAWGQGTTVTVSS VL: DIVMTQSPLSLPVTPGEPASISCQASQELVHMNRNTYLHWYQQKPGQAPRLLIYKVSNRFPGVPDRFSGSGSGTDFTLKISRVEAEDVGVYYCAQGTSVPFTFGQGTKLEIK
1.1 | H183/L072 VH N53H (antibody, name in Kabat numbering, V domains shown) VH: QVQLVESGGGLVQPGRSLRLSCAASGFTFSNAWMHWVRQAPGKGLEWVAQIKDKGHAYAAYYAPSVKGRFTISRDDSKNSIYLQMNSLKTEDTAVYYCHYVHYASASTVLPAFGVDAWGQGTTVTVSS VL: DIVMTQSPLSLPVTPGEPASISCQASQELVHMNRNTYLHWYQQKPGQAPRLLIYKVSNRFPGVPDRFSGSGSGTDFTLKISRVEAEDVGVYYCAQGTSVPFTFGQGTKLEIK
0.4 | H183/L072 VH N53D (antibody, name in Kabat numbering, V domains shown) VH: QVQLVESGGGLVQPGRSLRLSCAASGFTFSNAWMHWVRQAPGKGLEWVAQIKDKGDAYAAYYAPSVKGRFTISRDDSKNSIYLQMNSLKTEDTAVYYCHYVHYASASTVLPAFGVDAWGQGTTVTVSS VL: DIVMTQSPLSLPVTPGEPASISCQASQELVHMNRNTYLHWYQQKPGQAPRLLIYKVSNRFPGVPDRFSGSGSGTDFTLKISRVEAEDVGVYYCAQGTSVPFTFGQGTKLEIK
0.8 | H183/L072 VH N53R (antibody, name in Kabat numbering, V domains shown) VH: QVQLVESGGGLVQPGRSLRLSCAASGFTFSNAWMHWVRQAPGKGLEWVAQIKDKGRAYAAYYAPSVKGRFTISRDDSKNSIYLQMNSLKTEDTAVYYCHYVHYASASTVLPAFGVDAWGQGTTVTVSS VL: DIVMTQSPLSLPVTPGEPASISCQASQELVHMNRNTYLHWYQQKPGQAPRLLIYKVSNRFPGVPDRFSGSGSGTDFTLKISRVEAEDVGVYYCAQGTSVPFTFGQGTKLEIK
0 | H183/L072 VH N53P (antibody, name in Kabat numbering, V domains shown) VH: QVQLVESGGGLVQPGRSLRLSCAASGFTFSNAWMHWVRQAPGKGLEWVAQIKDKGPAYAAYYAPSVKGRFTISRDDSKNSIYLQMNSLKTEDTAVYYCHYVHYASASTVLPAFGVDAWGQGTTVTVSS VL: DIVMTQSPLSLPVTPGEPASISCQASQELVHMNRNTYLHWYQQKPGQAPRLLIYKVSNRFPGVPDRFSGSGSGTDFTLKISRVEAEDVGVYYCAQGTSVPFTFGQGTKLEIK
0.5 | H183/L072 VH N53M (antibody, name in Kabat numbering, V domains shown) VH: QVQLVESGGGLVQPGRSLRLSCAASGFTFSNAWMHWVRQAPGKGLEWVAQIKDKGMAYAAYYAPSVKGRFTISRDDSKNSIYLQMNSLKTEDTAVYYCHYVHYASASTVLPAFGVDAWGQGTTVTVSS VL: DIVMTQSPLSLPVTPGEPASISCQASQELVHMNRNTYLHWYQQKPGQAPRLLIYKVSNRFPGVPDRFSGSGSGTDFTLKISRVEAEDVGVYYCAQGTSVPFTFGQGTKLEIK

Source: patent US20210388087A1 (Chugai, published 2021)
